The series concerns the target T1, GlxR (Cg-GlxR) (Corynebacterium glutamicum, UniProt Q79VI7 1-227).
T1 sequence: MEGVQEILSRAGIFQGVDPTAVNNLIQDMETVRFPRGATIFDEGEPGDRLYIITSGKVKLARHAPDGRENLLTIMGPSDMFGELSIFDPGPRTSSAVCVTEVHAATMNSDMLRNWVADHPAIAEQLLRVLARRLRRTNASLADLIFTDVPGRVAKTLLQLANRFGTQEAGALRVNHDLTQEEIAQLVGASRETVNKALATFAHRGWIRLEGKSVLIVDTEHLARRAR
The experiment in a line: fluorescence anisotropy; 1.5 mM cAMP; 100 mM KH2PO4 pH 7.8, 200 mM KCl, 1 mM 1-thioglycerol, 0 or 1.5 mM cAMP, 5 nM labelled DNA; temperature not stated. The conditions noted are these: protein: recombinant; tags: His6 (N-terminal, pET16b); chain copies: 2; label: 5'-FITC on strand 1; blunt.

B1: FITC-labelled 26-mer duplex (dsDNA)
DNA 1: ATTAATGTGAGTTAGCTCACTCATTA
DNA 2: TAATGAGTGAGCTAACTCACATTAAT
As for B1, the Kd was 87 nM.

The values above are taken from article PMC4254451, “The Crystal Structures of Apo and cAMP-Bound GlxR from Corynebacterium glutamicum Reveal Structural and Dynamic Changes upon cAMP Binding in CRP/FNR Family Transcription Factors”.
